For one data set, the target named is His-TEV-ORF1p (human) (UniProt Q9UN81). Briefly: mass photometry.
The data set “mass photometry” concerns the molecule itself. The experiment in a line: mass photometry.

Take “His-TEV-ORF1p (from UniProt Q9UN81 1-338) (natural protein)”: in the data set with His-TEV-ORF1p (human), the percent of counts that are monomers came to 30%.

B1: ΔStammer-ORF1p (natural protein)
chain: MGKKQNRKTGNSKTQSASPPPKERSSSPATEQSWMENDFDELREEGFRRSNYSELREDIQTKGKEVENFEKNLEECITRITNTEKCLKELKTKARELREECRSLRSRCDQLEERVSAMEDEMNEMKREGKFREKRIKRNEQSLQEIWDYVKRPNLRLIGVPESDVENGTKLENTLQDIIQENFPNLARQANVQIQEIQRTPQRYSSRRATPRHIIVRFTKVEMKEKMLRAAREKGRVTLKGKPIRLTADLSAETLQARREWGPIFNILKEKNFQPRISYPAKLSFISEGEIKYFIDKQMLRDFVTTRPALKELLKEALNMERNNRYQPLQNHAKM
B1: the stoichiometry N (commonly the number of molecules, sites or subunits per partner or assembly) in “mass photometry” came out at 6.

B2: K3A/K4A-ORF1p (natural protein)
chain: MGAAQNRKTGNSKTQSASPPPKERSSSPATEQSWMENDFDELREEGFRRSNYSELREDIQTKGKEVENFEKNLEECITRITNTEKCLKELMELKTKARELREECRSLRSRCDQLEERVSAMEDEMNEMKREGKFREKRIKRNEQSLQEIWDYVKRPNLRLIGVPESDVENGTKLENTLQDIIQENFPNLARQANVQIQEIQRTPQRYSSRRATPRHIIVRFTKVEMKEKMLRAAREKGRVTLKGKPIRLTADLSAETLQARREWGPIFNILKEKNFQPRISYPAKLSFISEGEIKYFIDKQMLRDFVTTRPALKELLKEALNMERNNRYQPLQNHAKM
In the case of B2, the “stoichiometry N” value in “mass photometry” was found to be 6.

For the origin of these results see article doi:10.1101/2024.10.01.616040 (bioRxiv, 2024).
